Test results reported in patent US20260184779A1 (XBIOTECH, published 2026).

Target: T1, recombinant human interleukin 1 alpha (IL-1α) (human, UniProt P01583 113-271)
T1 sequence (looked up): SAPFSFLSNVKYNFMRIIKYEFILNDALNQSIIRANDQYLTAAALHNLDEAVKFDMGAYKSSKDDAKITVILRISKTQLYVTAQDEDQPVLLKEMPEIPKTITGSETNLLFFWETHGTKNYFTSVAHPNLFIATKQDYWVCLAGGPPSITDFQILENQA
Experiment: cell-based or functional assay

- HUVEC-based potency assay: ICAM-1 expression on HUVEC cells by flow cytometry, IC50: 3.7 ng/mL
B1: human monoclonal antibody designated XIA13 (antibody, V domains shown)
VH: QVQLVQSGAEVKKPGSSVKVSCKASGGRFTNYAILWVRQAPGQGLQWLGGIIPIFDETDHAQDFQDRLTITVDESMTTAYMELSSLRPEDTAIYYCATGSNSYYGLYWGQGTLVTVSS
VL: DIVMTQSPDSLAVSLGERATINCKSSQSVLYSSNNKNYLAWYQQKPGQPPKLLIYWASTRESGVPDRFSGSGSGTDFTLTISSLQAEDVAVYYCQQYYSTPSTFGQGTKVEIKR
